Molecular target: T1, epidermal growth factor receptor (EGFR) (human (endogenous in A-431, DU-145, …, UniProt P00533 25-1210))
T1 construct: also called ErbB1; HER1
Assay: radioligand binding; saturation assay on living A-431 cells; eight concentrations of radiolabeled protein 0.22 to 40 nM, 4 h at 4 °C; nonspecific binding with 50-fold molar excess of unlabeled (HE)3-E01; nonlinear regression
Conditions: one partner purified

Kd [nM] | Binder
4.9 ± 0.5 | [^99mTc]Tc-(HE)3-E01 (designed binder, [^99mTc]Tc(CO)3^+ with the (HE)3 tag as a chelator at the N-terminus, DARPin E01 with the N-terminal (HE)3 tag; also called DARPin (HE)3-E01 labeled with [^99mTc]Tc(CO)3; technetium-labeled variant; source: E. coli, purified; labeled with [^99mTc]Tc(CO)3, isolated on NAP-5 size-exclusion column; not shown: (HE)3, N-terminal, kept) MRGSHEHEHEGSDLGKKLLEAARAGQDDEVRILMANGADVNADDTWGWTPLHLAAYQGHLEIVEVLLKNGADVNAYDYIGWTPLHLAADGHLEIVEVLLKNGADVNASDYIGDTPLHLAAHNGHLEIVEVLLKHGADVNAQDKFGKTAFDISIDNGNEDLAEILQKLN
2.5 ± 0.5 | [^123I]I-(HE)3-E01-PIB (designed binder, [^123I]I-para-iodobenzoate (PIB) conjugated to the N-terminal or one of eight lysine amino groups (site-unspecific), DARPin E01 with the N-terminal (HE)3 tag; source: E. coli, purified; not shown: (HE)3, N-terminal, kept) MRGSHEHEHEGSDLGKKLLEAARAGQDDEVRILMANGADVNADDTWGWTPLHLAAYQGHLEIVEVLLKNGADVNAYDYIGWTPLHLAADGHLEIVEVLLKNGADVNASDYIGDTPLHLAAHNGHLEIVEVLLKHGADVNAQDKFGKTAFDISIDNGNEDLAEILQKLN
